Target: Notch1(EGF1-36) (amino acids 20-1426) (human, UniProt P46531 20-1426, biotin, chemically at the N-terminus (EZ-Link Sulfo-NHS-Biotin))
Test: SPR

Notch1(EGF1-36) (amino acids 20-1426), sequence (P46531 20-1426): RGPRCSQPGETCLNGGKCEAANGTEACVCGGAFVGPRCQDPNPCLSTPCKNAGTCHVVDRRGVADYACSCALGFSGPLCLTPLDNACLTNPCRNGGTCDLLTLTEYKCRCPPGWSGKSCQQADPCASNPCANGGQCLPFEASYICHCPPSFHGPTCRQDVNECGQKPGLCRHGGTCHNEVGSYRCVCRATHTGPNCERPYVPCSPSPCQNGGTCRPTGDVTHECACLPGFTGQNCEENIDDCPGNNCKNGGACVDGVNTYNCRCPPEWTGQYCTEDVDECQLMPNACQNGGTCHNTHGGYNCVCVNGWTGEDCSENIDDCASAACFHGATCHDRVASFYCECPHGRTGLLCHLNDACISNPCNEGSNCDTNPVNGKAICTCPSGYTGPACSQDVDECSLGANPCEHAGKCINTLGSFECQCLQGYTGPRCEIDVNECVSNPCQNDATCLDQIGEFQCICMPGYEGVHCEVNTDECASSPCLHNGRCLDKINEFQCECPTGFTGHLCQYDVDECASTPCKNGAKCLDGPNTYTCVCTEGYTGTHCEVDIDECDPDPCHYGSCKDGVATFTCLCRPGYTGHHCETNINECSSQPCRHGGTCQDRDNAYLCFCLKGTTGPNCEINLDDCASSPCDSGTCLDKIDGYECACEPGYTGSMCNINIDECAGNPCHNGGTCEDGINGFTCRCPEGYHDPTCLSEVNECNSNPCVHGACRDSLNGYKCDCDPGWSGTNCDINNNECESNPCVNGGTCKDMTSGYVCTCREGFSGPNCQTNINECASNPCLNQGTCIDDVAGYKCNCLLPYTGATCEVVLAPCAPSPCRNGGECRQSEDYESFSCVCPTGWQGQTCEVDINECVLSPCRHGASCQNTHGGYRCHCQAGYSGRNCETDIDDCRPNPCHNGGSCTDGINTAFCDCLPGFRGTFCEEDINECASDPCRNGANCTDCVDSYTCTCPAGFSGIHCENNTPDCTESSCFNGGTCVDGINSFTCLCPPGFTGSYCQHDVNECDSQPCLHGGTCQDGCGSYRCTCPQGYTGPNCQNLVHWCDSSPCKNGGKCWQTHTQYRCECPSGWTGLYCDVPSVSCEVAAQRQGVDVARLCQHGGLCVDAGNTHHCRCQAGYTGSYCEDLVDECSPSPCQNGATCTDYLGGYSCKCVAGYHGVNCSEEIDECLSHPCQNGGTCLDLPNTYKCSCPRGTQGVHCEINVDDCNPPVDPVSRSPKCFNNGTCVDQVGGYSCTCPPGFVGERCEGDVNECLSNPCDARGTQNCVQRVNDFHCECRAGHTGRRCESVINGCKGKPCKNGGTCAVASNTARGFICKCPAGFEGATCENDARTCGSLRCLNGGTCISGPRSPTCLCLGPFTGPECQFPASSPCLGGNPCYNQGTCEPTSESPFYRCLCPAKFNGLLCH

B1: Human DLL4 (N-EGF5, amino acids 27-400) (domain or fragment)
chain: SGVFQLQLQEFINERGVLASGRPCEPGCRTFFRVCLKHFQAVVSPGPCTFGTVSTPVLGTNSFAVRDDSSGGGRNPLQLPFNFTWPGTFSLIIEAWHAPGDDLRPEALPPDALISKIAIQGSLAVGQNWLLDEQTSTLTRLRYSYRVICSDNYYGDNCSRLCKKRNDHFGHYVCQPDGNLSCLPGWTGEYCQQPICLSGCHEQNGYCSKPAECLCRPGWQGRLCNECIPHNGCRHGTCSTPWQCTCDEGWGGLFCDQDLNYCTHHSPCKNGATCSNSGQRSYTCTCRPGYTGVDCELELSECDSNPCRNGGSCKDQEDGYHCLCPPGYYGLHCEHSTLSCADSPCFNGGSCRERNQGANYACECPPNFTGSNCE
In the case of B1, the Kd is reported as 7.7 µM.
